Data set [1] addresses HIV-1 NC WT (HIV-1 (NL4-3 isolate)) (UniProt P12493). The data set can be described thus: fluorescence anisotropy. To be noted: FA: 20 mM HEPES pH 7.5, 50 mM NaCl, 10 uM TCEP, 5 mM beta-mercaptoethanol, 1 uM zinc acetate, 20 C, 30 min; 20 nM micro-TAR RNA or 10 nM (TG)4 DNA (Table …). On the technique in general: Polarisation of emitted light reports the rotation of a fluorescent probe.

The target in another data set is HIV-1 NC WT (HIV-1 (NL4-3 isolate), UniProt P12493 378-432). As to the kind of experiment: fluorescence anisotropy; 1 uM zinc acetate; FA: 20 mM HEPES pH 7.5, 50 mM NaCl, 10 uM TCEP, 5 mM beta-mercaptoethanol, 1 uM zinc acetate, 20 C, 30 min; 20 nM micro-TAR RNA or 10 nM (TG)4 DNA (Table 1 footnote: room temperature). Particulars: protein: recombinant; label: 5' carboxyfluorescein (FAM); single strand.

Usually Kd stands for a measure of binding affinity in units of concentration. The molecule micro-TAR RNA 18-mer gave a Kd in data set [1] of 315 nM.

For the molecule TGTGTGTG (ssDNA) [(TG)4 DNA], the dissociation constant (Kd) with HIV-1 NC WT is 5 ± 1 nM.

The values above are taken from PMC3936775, “Differential contribution of basic residues to HIV-1 nucleocapsid protein’s nucleic acid chaperone function and retroviral replication”.
